The subject of data set [1] is MCF7. Nature of the data set: percentage of EdU-negative (G0-arrested) nuclei per well, 72 h; higher = more G0 arrest. The note with it: reference: sequence is the full UniProt precursor, the tested protein was the secreted form or ectodomain.
The subject of data set [2] is hTERT-HMEC. The data set is described as above. The note with it: reference: sequence is the full UniProt precursor, the tested protein was the secreted form or ectodomain.
Where [3] appears, read: protein concentration 0.0225 µM.
The mark [4] stands for this setting: protein concentration 0.00775 µM.
[5] abbreviates: protein concentration 0.0775 µM.
[6] abbreviates: protein concentration 0.0357143 µM.
Setting [7] is: protein concentration 0.357143 µM.

This is an account of results in the supplement of paper PMC11316812.

± gives the standard deviation of the averaged measurements.
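Also: secreted proteins added to cultured cells, EdU pulse at the end, nuclei found by Hoechst imaging, EdU status from nuclear versus surrounding ring intensity ratio, PBS as neutral control.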

For the sequence “MAQLWLSCFLLPALVVSVAANVAPKFLANMTSVILPEDLPVGAQAFWLVAEDQDNDPLTYGMSGPNAYFFAVTPKTGEVKLASALDYETLYTFKVTISVSDPYIQVQREMLVIVEDRNDNAPVFQNTAFSTSINETLPVGSVVFSVLAVDKDMGSAGMVVYSIEKVIPSTGDSEHLFRILANGSIVLNGSLSYNNKSAFYQLELKACDLGGMYHNTFTIQCSLPVFLSISVVDQPDLDPQFVREFYSASVAEDAAKGTSVLTVEAVDGDKGINDPVIYSISYSTRPGWFDIGADGVIRVNGSLDREQLLEADEEVQLQVTATETHLNIYGQEAKVSIWVTVRVMDVNDHKPEFYNCSLPACTFTPEEAQVNFTGYVDEHASPRIPIDDLTMVVYDPDKGSNGTFLLSLGGPDAEAFSVSPERAVGSASVQVLVRVSALVDYERQTAMAVQVVATDSVSQNFSVAMVTIHLRDINDHRPTFPQSLYVLTVPEHSATGSVVTDSIHATDPDTGAWGQITYSLLPGNGADLFQVDPVSGTVTVRNGELLDRESQAVYYLTLQATDGGNLSSSTTLQIHLLDINDNAPVVSGSYNIFVQEEEGNVSVTIQAHDNDEPGTNNSRLLFNLLPGPYSHNFSLDPDTGLLRNLGPLDREAIDPALEGRIVLTVLVSDCGEPVLGTKVNVTITVEDINDNLPIFNQSSYNFTVKEEDPGVLVGVVKAWDADQTEANNRISFSLSGSGANYFMIRGLVLGAGWAEGYLRLPPDVSLDYETQPVFNLTVSAENPDPQGGETIVDVCVNVKDVNDNPPTLDVASLRGIRVAENGSQHGQVAVVVASDVDTSAQLEIQLVNILCTKAGVDVGSLCWGWFSVAANGSVYINQSKAIDYEACDLVTLVVRACDLATDPGFQAYSNNGSLLITIEDVNDNAPYFLPENKTFVIIPELVLPNREVASVRARDDDSGNNGVILFSILRVDFISKDGATIPFQGVFSIFTSSEADVFAGSIQPVTSLDSTLQGTYQVTVQARDRPSLGPFLEATTTLNLFTVDQSYRSRLQFSTPKEEVGANRQAINAALTQATRTTVYIVDIQDIDSAARARPHSYLDAYFVFPNGSALTLDELSVMIRNDQDSLTQLLQLGLVVLGSQESQESDLSKQLISVIIGLGVALLLVLVIMTMAFVCVRKSYNRKLQAMKAAKEARKTAAGVMPSAPAIPGTNMYNTERANPMLNLPNKDLGLEYLSPSNDLDSVSVNSLDDNSVDVDKNSQEIKEHRPPHTPPEPDPEPLSVVLLGRQAGASGQLEGPSYTNAGLDTTDL [Q9BYE9]”, the “percentage of EdU-negative” value in data set [1] (setting [3]) was found to be 26.56 ± 0.19%; in data set [1] (protein concentration 0.225 µM), 26.4 ± 2.1%; in data set [2] (setting [3]) it was 4.86 ± 0.083%; in data set [2] (protein concentration 0.225 µM), 7.42 ± 0.98%.
On the same counts, the results for “MAQRCVCVLALVAMLLLVFPTVSRSMGPRSGEHQRASRIPSQFSKEERVAMKEALKGAIQIPTVTFSSEKSNTTALAEFGKYIHKVFPTVVSTSFIQHEVVEEYSHLFTIQGSDPSLQPYLLMAHFDVVPAPEEGWEVPPFSGLERDGIIYGRGTLDDKNSVMALLQALELLLIRKYIPRRSFFISLGHDEESSGTGAQRISALLQSRGVQLAFIVDEGGFILDDFIPNFKKPIALIAVSEKGSMNLMLQVNMTSGHSSAPPKETSIGILAAAVSRLEQTPMPIIFGSGTVVTVLQQLANEFPFPVNIILSNPWLFEPLISRFMERNPLTNAIIRTTTALTIFKAGVKFNVIPPVAQATVNFRIHPGQTVQEVLELTKNIVADNRVQFHVLSAFDPLPVSPSDDKALGYQLLRQTVQSVFPEVNITAPVTSIGNTDSRFFTNLTTGIYRFYPIYIQPEDFKRIHGVNEKISVQAYETQVKFIFELIQNADTDQEPVSHLHKL [Q6GTS8]” are 28 ± 2%, 24.4 ± 2.8%, 4.69 ± 0.48% and 5.33 ± 0.14%.
On the same counts, the results for “MAQRMTTQLLLLLVWVAVVGEAQTRIAWARTELLNVCMNAKHHKEKPGPEDKLHEQCRPWRKNACCSTNTSQEAHKDVSYLYRFNWNHCGEMAPACKRHFIQDTCLYECSPNLGPWIQQVDQSWRKERVLNVPLCKEDCEQWWEDCRTSYTCKSNWHKGWNWTSGFNKCAVGAACQPFHFYFPTPTVLCNEIWTHSYKVSNYSRGSGRCIQMWFDPAQGNPNEEVARFYAAAMSGAGPWAAWPFLLSLALMLLWLLS” are 25.4 ± 1.9%, 24.4 ± 0.58%, 15.7 ± 0.18% and 10.3 ± 8.7%.
For the sequence “MAQSRVLLLLLLLPPQLHLGPVLAVRAPGFGRSGGHSLSPEENEFAEEEPVLVLSPEEPGPGPAAVSCPRDCACSQEGVVDCGGIDLREFPGDLPEHTNHLSLQNNQLEKIYPEELSRLHRLETLNLQNNRLTSRGLPEKAFEHLTNLNYLYLANNKLTLAPRFLPNALISVDFAANYLTKIYGLTFGQKPNLRSVYLHNNKLADAGLPDNMFNGSSNVEVLILSSNFLRHVPKHLPPALYKLHLKNNKLEKIPPGAFSELSSLRELYLQNNYLTDEGLDNETFWKLSSLEYLDLSSNNLSRVPAGLPRSLVLLHLEKNAIRSVDANVLTPIRSLEYLLLHSNQLREQGIHPLAFQGLKRLHTVHLYNNALERVPSGLPRRVRTLMILHNQITGIGREDFATTYFLEELNLSYNRITSPQVHRDAFRKLRLLRSLDLSGNRLHTLPPGLPRNVHVLKVKRNELAALARGALVGMAQLRELYLTSNRLRSRALGPRAWVDLAHLQLLDIAGNQLTEIPEGLPESLEYLYLQNNKISAVPANAFDSTPNLKGIFLRFNKLAVGSVVDSAFRRLKHLQVLDIEGNLEFGDISKDRGRLGKEKEEEEEEEEEEEETR [Q7Z5L7]”, the “percentage of EdU-negative” value worked out at 24.5 ± 1.1% in data set [1] (setting [4]), 23.2 ± 0.88% in data set [1] (setting [5]), 4.64 ± 0.6% in data set [2] (setting [4]) and 5.72 ± 1.3% in data set [2] (setting [5]).
For “MAQTNSFFMLISSLMFLSLSQGQESQTELPNPRISCPEGTNAYRSYCYYFNEDPETWVDADLYCQNMNSGNLVSVLTQAEGAFVASLIKESSTDDSNVWIGLHDPKKNRRWHWSSGSLVSYKSWDTGSPSSANAGYCASLTSCSGFKKWKDESCEKKFSFVCKFKN”, the “percentage of EdU-negative” value stood at 27 ± 1.8% in data set [1] (setting [6]), 24.6 ± 0.83% in data set [1] (setting [7]), 5.51 ± 1.2% in data set [2] (setting [6]) and 5.35 ± 1.6% in data set [2] (setting [7]).
